T1: human CD166 protein (human, UniProt Q13740 28-526, limits assumed)
T1 construct: Isolated human CD166 protein coated on ELISA plates; also called ALCAM
T1 sequence (looked up): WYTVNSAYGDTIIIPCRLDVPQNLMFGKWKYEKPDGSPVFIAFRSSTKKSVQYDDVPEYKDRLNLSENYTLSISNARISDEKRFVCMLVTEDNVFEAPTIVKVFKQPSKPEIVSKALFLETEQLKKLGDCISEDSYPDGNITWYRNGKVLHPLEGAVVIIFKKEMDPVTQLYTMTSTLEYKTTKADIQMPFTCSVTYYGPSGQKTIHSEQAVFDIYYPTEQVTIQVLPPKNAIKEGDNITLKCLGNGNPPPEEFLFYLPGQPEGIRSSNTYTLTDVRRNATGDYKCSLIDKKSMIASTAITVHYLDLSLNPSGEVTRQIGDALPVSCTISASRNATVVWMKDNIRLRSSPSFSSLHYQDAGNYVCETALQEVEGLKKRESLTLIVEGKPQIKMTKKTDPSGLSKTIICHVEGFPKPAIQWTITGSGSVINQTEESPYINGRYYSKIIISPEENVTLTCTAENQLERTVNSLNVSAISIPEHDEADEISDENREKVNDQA


Experiments:
[1] = molecular target: T1, human CD166 protein; assay: ELISA; relative to parental CD166 M9 vk1/HcB
[2] = molecular target: T1, human CD166 protein; assay: ELISA, human CD166 protein coated; apparent Kd
[3] = molecular target: T1, human CD166 protein; assay: ELISA, human CD166 protein coated, anti-human FAB-peroxidase

| Binder | Fold Increase in Kd [1] | Kd [2] | binding result [3] |
| --- | --- | --- | --- |
| CD166-16522-2001 (antibody) chain 1: QITLKESGPTLVKPTQTLTLTCTFSGFSLSTYGMGVGWIRQPPGKALEWLANIWWSEDKHYSPSLKSRLTITKDTSKNQVVLTMTNMDPVDTATYYCVQIDYGNDYAFTYWGQGTLVTVSS chain 2: QGQSGQGLEGWCLHPLCLWGAGGGGSSGGSISSGLLSGRSDNHGGGSDIVMTQSPLSLPVTPGEPASISCRSSKSLLHSNGITYLYWYLQKPGQSPQLLIYQMSNLASGVPDRFSGSGSGTDFTLKISRVEAEDVGVYYCAQNLELPYTFGQGTKLEIK | 95 fold | 424 nM |  |
| CD166-7614.9-2001 (antibody) chain 1: QITLKESGPTLVKPTQTLTLTCTFSGFSLSTYGMGVGWIRQPPGKALEWLANIWWSEDKHYSPSLKSRLTITKDTSKNQVVLTMTNMDPVDTATYYCVQIDYGNDYAFTYWGQGTLVTVSS chain 2: QGQSGQGLCHPLVLSAAESCSSGGGSSGGSISSGLLSGRSDNHGGGSDIVMTQSPLSLPVTPGEPASISCRSSKSLLHSNGITYLYWYLQKPGQSPQLLIYQMSNLASGVPDRFSGSGSGTDFTLKISRVEAEDVGVYYCAQNLELPYTFGQGTKLEIK | 120 fold | 534 nM |  |
| CD166-16522.14-2001 (antibody) chain 1: QITLKESGPTLVKPTQTLTLTCTFSGFSLSTYGMGVGWIRQPPGKALEWLANIWWSEDKHYSPSLKSRLTITKDTSKNQVVLTMTNMDPVDTATYYCVQIDYGNDYAFTYWGQGTLVTVSS chain 2: QGQSGQGLEGACLHPLCLWGAGGGGSSGGSISSGLLSGRSDNHGGGSDIVMTQSPLSLPVTPGEPASISCRSSKSLLHSNGITYLYWYLQKPGQSPQLLIYQMSNLASGVPDRFSGSGSGTDFTLKISRVEAEDVGVYYCAQNLELPYTFGQGTKLEIK | 95 fold | 422 nM |  |
| CD166-16522.16-2001 (antibody) chain 1: QITLKESGPTLVKPTQTLTLTCTFSGFSLSTYGMGVGWIRQPPGKALEWLANIWWSEDKHYSPSLKSRLTITKDTSKNQVVLTMTNMDPVDTATYYCVQIDYGNDYAFTYWGQGTLVTVSS chain 2: QGQSGQGLEGWCLAPLCLWGAGGGGSSGGSISSGLLSGRSDNHGGGSDIVMTQSPLSLPVTPGEPASISCRSSKSLLHSNGITYLYWYLQKPGQSPQLLIYQMSNLASGVPDRFSGSGSGTDFTLKISRVEAEDVGVYYCAQNLELPYTFGQGTKLEIK | 11 fold | 47.4 nM |  |
| CD166-7614.12-2001 (antibody) chain 1: QITLKESGPTLVKPTQTLTLTCTFSGFSLSTYGMGVGWIRQPPGKALEWLANIWWSEDKHYSPSLKSRLTITKDTSKNQVVLTMTNMDPVDTATYYCVQIDYGNDYAFTYWGQGTLVTVSS chain 2: QGQSGQGHPLVLGGGSSGGSISSGLLSGRSDNHGGGSDIVMTQSPLSLPVTPGEPASISCRSSKSLLHSNGITYLYWYLQKPGQSPQLLIYQMSNLASGVPDRFSGSGSGTDFTLKISRVEAEDVGVYYCAQNLELPYTFGQGTKLEIK | 75 fold | 332 nM |  |
| CD166-7614.13-2001 (antibody) chain 1: QITLKESGPTLVKPTQTLTLTCTFSGFSLSTYGMGVGWIRQPPGKALEWLANIWWSEDKHYSPSLKSRLTITKDTSKNQVVLTMTNMDPVDTATYYCVQIDYGNDYAFTYWGQGTLVTVSS chain 2: QGQSGQGHPLGGGSSGGSISSGLLSGRSDNHGGGSDIVMTQSPLSLPVTPGEPASISCRSSKSLLHSNGITYLYWYLQKPGQSPQLLIYQMSNLASGVPDRFSGSGSGTDFTLKISRVEAEDVGVYYCAQNLELPYTFGQGTKLEIK | 18 fold | 77.7 nM |  |
| CD166-7614.11-2001 (antibody) chain 1: QITLKESGPTLVKPTQTLTLTCTFSGFSLSTYGMGVGWIRQPPGKALEWLANIWWSEDKHYSPSLKSRLTITKDTSKNQVVLTMTNMDPVDTATYYCVQIDYGNDYAFTYWGQGTLVTVSS chain 2: QGQSGQGCHPLVLSAWESCGGGSSGGSISSGLLSGRSDNHGGGSDIVMTQSPLSLPVTPGEPASISCRSSKSLLHSNGITYLYWYLQKPGQSPQLLIYQMSNLASGVPDRFSGSGSGTDFTLKISRVEAEDVGVYYCAQNLELPYTFGQGTKLEIK | 123 fold | 544 nM |  |
| CD166-7614.10-2001 (antibody) chain 1: QITLKESGPTLVKPTQTLTLTCTFSGFSLSTYGMGVGWIRQPPGKALEWLANIWWSEDKHYSPSLKSRLTITKDTSKNQVVLTMTNMDPVDTATYYCVQIDYGNDYAFTYWGQGTLVTVSS chain 2: QGQSGQGLCHPLVLSAWASCSSGGGSSGGSISSGLLSGRSDNHGGGSDIVMTQSPLSLPVTPGEPASISCRSSKSLLHSNGITYLYWYLQKPGQSPQLLIYQMSNLASGVPDRFSGSGSGTDFTLKISRVEAEDVGVYYCAQNLELPYTFGQGTKLEIK | 154 fold | 685 nM |  |
| CD166-7614.5-2001 (antibody) chain 1: QITLKESGPTLVKPTQTLTLTCTFSGFSLSTYGMGVGWIRQPPGKALEWLANIWWSEDKHYSPSLKSRLTITKDTSKNQVVLTMTNMDPVDTATYYCVQIDYGNDYAFTYWGQGTLVTVSS chain 2: QGQSGQGLCHALVLSAWESCSSGGGSSGGSISSGLLSGRSDNHGGGSDIVMTQSPLSLPVTPGEPASISCRSSKSLLHSNGITYLYWYLQKPGQSPQLLIYQMSNLASGVPDRFSGSGSGTDFTLKISRVEAEDVGVYYCAQNLELPYTFGQGTKLEIK | 112 fold | 495 nM |  |
| CD166-7614.7-2001 (antibody) chain 1: QITLKESGPTLVKPTQTLTLTCTFSGFSLSTYGMGVGWIRQPPGKALEWLANIWWSEDKHYSPSLKSRLTITKDTSKNQVVLTMTNMDPVDTATYYCVQIDYGNDYAFTYWGQGTLVTVSS chain 2: QGQSGQGLCHPLALSAWESCSSGGGSSGGSISSGLLSGRSDNHGGGSDIVMTQSPLSLPVTPGEPASISCRSSKSLLHSNGITYLYWYLQKPGQSPQLLIYQMSNLASGVPDRFSGSGSGTDFTLKISRVEAEDVGVYYCAQNLELPYTFGQGTKLEIK | 139 fold | 619 nM |  |
| CD166-16522.17-2001 (antibody) chain 1: QITLKESGPTLVKPTQTLTLTCTFSGFSLSTYGMGVGWIRQPPGKALEWLANIWWSEDKHYSPSLKSRLTITKDTSKNQVVLTMTNMDPVDTATYYCVQIDYGNDYAFTYWGQGTLVTVSS chain 2: QGQSGQGLEGWCLHALCLWGAGGGGSSGGSISSGLLSGRSDNHGGGSDIVMTQSPLSLPVTPGEPASISCRSSKSLLHSNGITYLYWYLQKPGQSPQLLIYQMSNLASGVPDRFSGSGSGTDFTLKISRVEAEDVGVYYCAQNLELPYTFGQGTKLEIK | 14 fold | 61.6 nM |  |
| CD166-16522.15-2001 (antibody) chain 1: QITLKESGPTLVKPTQTLTLTCTFSGFSLSTYGMGVGWIRQPPGKALEWLANIWWSEDKHYSPSLKSRLTITKDTSKNQVVLTMTNMDPVDTATYYCVQIDYGNDYAFTYWGQGTLVTVSS chain 2: QGQSGQGLEGWCAHPLCLWGAGGGGSSGGSISSGLLSGRSDNHGGGSDIVMTQSPLSLPVTPGEPASISCRSSKSLLHSNGITYLYWYLQKPGQSPQLLIYQMSNLASGVPDRFSGSGSGTDFTLKISRVEAEDVGVYYCAQNLELPYTFGQGTKLEIK | 101 fold | 448 nM |  |
| CD166-M9_vK3b/HcB (antibody, V domains shown, Humanized M9) VH: QITLKESGPTLVKPTQTLTLTCTFSGFSLSTYGMGVGWIRQPPGKALEWLANIWWSEDKHYSPSLKSRLTITKDTSKNQVVLTMTNMDPVDTATYYCVQIDYGNDYAFTYWGQGTLVTVSS VL: DIVMTQSPLSLPVTPGEPASISCRSSQSLLHSNGITYLYWYLQKPGQSPQLLIYQMSNRASGVPDRFSSSGSGTDFTLKISRVEAEDVGVYYCAQNLELPYTFGQGTKLEIK |  |  | binds |
| CD166-M9_vK3a/HcC (antibody, V domains shown, Humanized M9) VH: QITLKESGPTLVKPTQTLTLTCTFSGFSLSTYGMGVGWIRQPPGKALEWLANIWWSEDKHYSPSLKSRLTITKDTSKNQVVLTITNVDPVDTATYYCVQIDYGNDYAFTYWGQGTLVTVSS VL: DIVMTQSPLSLPVTPGEPASISCRSSQSLLHSNGITYLYWYLQKPGQSPQLLIYQMSNRASGVPDRFSGSGSGTDFTLKISRVEAEDVGVYYCAQNLELPYTFGQGTKLEIK |  |  | binds |
| CD166-M9_vK2/HcC (antibody, V domains shown, Humanized M9) VH: QITLKESGPTLVKPTQTLTLTCTFSGFSLSTYGMGVGWIRQPPGKALEWLANIWWSEDKHYSPSLKSRLTITKDTSKNQVVLTITNVDPVDTATYYCVQIDYGNDYAFTYWGQGTLVTVSS VL: DIVMTQSPLSLPVTPGEPASISCRSSKSLLHSNGITYLYWYLQKPGQSPQLLIYQMSNLASGVPDRFSSSGSGTDFTLKISRVEAEDVGVYYCAQNLELPYTFGQGTKLEIK |  |  | binds |
| CD166-M9_vk3a/HcB (antibody, V domains shown, Humanized M9) VH: QITLKESGPTLVKPTQTLTLTCTFSGFSLSTYGMGVGWIRQPPGKALEWLANIWWSEDKHYSPSLKSRLTITKDTSKNQVVLTMTNMDPVDTATYYCVQIDYGNDYAFTYWGQGTLVTVSS VL: DIVMTQSPLSLPVTPGEPASISCRSSQSLLHSNGITYLYWYLQKPGQSPQLLIYQMSNRASGVPDRFSGSGSGTDFTLKISRVEAEDVGVYYCAQNLELPYTFGQGTKLEIK |  |  | binds |
| CD166-M9_vK3b/HcC (antibody, V domains shown, Humanized M9) VH: QITLKESGPTLVKPTQTLTLTCTFSGFSLSTYGMGVGWIRQPPGKALEWLANIWWSEDKHYSPSLKSRLTITKDTSKNQVVLTITNVDPVDTATYYCVQIDYGNDYAFTYWGQGTLVTVSS VL: DIVMTQSPLSLPVTPGEPASISCRSSQSLLHSNGITYLYWYLQKPGQSPQLLIYQMSNRASGVPDRFSSSGSGTDFTLKISRVEAEDVGVYYCAQNLELPYTFGQGTKLEIK |  |  | binds |
